Experimental findings from PMC11674828 are described below.

The chains are these.
B1: (Corynebacterium glutamicum ATCC 13032) (protein)
chain 1: MLRTILGSKIHRATVTQADLDYVG
chain 2: SVTIDADLVHAAGLIEGEKVAIVDITNGARLETYVIVGDAGTGNICINGAAAHLINPGDLVIIMSYLQATDAEAKAYEPKIVHVDADNRIVALGNDLAEALPGSGLLTSRSI
B2: (Thermus thermophilus HB8) (protein)
chain 1: MKRVMFHAKIHRATVTQADLHYVG
chain 2: SVTVDQDLLDAAGILPFEQVDIYDITNGARLTTYALPGERGSGVIGINGAAAHLVKPGDLVILVAYGVFDEEEARNLKPTVVLVDERNRILEVRKG
B3: (Escherichia coli K-12) (protein)
chain 1: MIRTMLQGKLHRVKVTHADLHYEG
chain 2: SCAIDQDFLDAAGILENEAIDIWNVTNGKRFSTYAIAAERGSRIISVNGAAAHCASVGDIVIIASFVTMPDEEARTWRPNVAYFEGDNEMKRTAKAIPVQVA

Substrate in the data set: N[C@@H](CC(=O)O)C(=O)O
Nature of the data set: purified protein. The settings on record: pH 8.0.
On to B1, for which the Km is given as 4.3 ± 0.2 mM, the turnover number (kcat) came out at 2.8 s⁻¹ and the kcat/Km stood at 650 M⁻¹ s⁻¹.

Regarding B2, the Michaelis constant (Km) is 8.5 ± 0.1 mM, the kcat worked out at 2.2 s⁻¹ and the kcat/Km amounted to 260 M⁻¹ s⁻¹.

As for B3, the Km came to 7.9 ± 0.1 mM, the kcat was 1.4 s⁻¹ and the kcat/Km worked out at 180 M⁻¹ s⁻¹.
